We go through 1 substance from patent publication US20150337309A1.

Test [1] deals with integrin αvβ3 on breast cancer cells (MCF7, 4T1, MDA-MB-231). The test can be described thus: cell-based or functional assay.
For test [2], the target named is integrin αvβ5 on breast cancer cells (MCF7, 4T1, MDA-MB-231). The test can be described thus: cell-based or functional assay.

For the substance “periostin (recombinant protein purchased from R&D system, as coated on wells or added to cells) (ligand)”, the cell adhesion to periostin-coated wells after treatment with anti-αvβ3 antibody in test [1] is 50 % of control. In addition, in test [2], the cell adhesion to periostin-coated wells after treatment with anti-αvβ5 antibody is 50 % of control.
